Changes are numbered by the printed parent chain. Values belong to the binder of their own block, whether it stands above or below them.
Legend:
[1] = target: T1, human P-cadherin on the surface of cells (human, UniProt P22223 108-829); assay: epitope competition on A431 cells; competitor: biotinylated 129-1c4 IgG, DELFIA
T1 construct: whole, on cells; also called native P-cadherin on the surface of A431 cells; SW480 cells stably expressing P-cadherin

[2] = target: T1, human P-cadherin on the surface of cells; assay: cell-based or functional assay
[3] = target: T1, human P-cadherin on the surface of cells; assay: cell-based or functional assay; remark: listed apart in the source
[4] = target: T1, human P-cadherin on the surface of cells; assay: cell-based or functional assay; remark: listed apart in the source
[5] = target: T2, recombinant human E-cadherin (R&D Systems 648-EC-100) (human, UniProt P12830 155-707); assay: ELISA on coated antigen, relative KD
T2 construct: Bought protein
T2 sequence (looked up): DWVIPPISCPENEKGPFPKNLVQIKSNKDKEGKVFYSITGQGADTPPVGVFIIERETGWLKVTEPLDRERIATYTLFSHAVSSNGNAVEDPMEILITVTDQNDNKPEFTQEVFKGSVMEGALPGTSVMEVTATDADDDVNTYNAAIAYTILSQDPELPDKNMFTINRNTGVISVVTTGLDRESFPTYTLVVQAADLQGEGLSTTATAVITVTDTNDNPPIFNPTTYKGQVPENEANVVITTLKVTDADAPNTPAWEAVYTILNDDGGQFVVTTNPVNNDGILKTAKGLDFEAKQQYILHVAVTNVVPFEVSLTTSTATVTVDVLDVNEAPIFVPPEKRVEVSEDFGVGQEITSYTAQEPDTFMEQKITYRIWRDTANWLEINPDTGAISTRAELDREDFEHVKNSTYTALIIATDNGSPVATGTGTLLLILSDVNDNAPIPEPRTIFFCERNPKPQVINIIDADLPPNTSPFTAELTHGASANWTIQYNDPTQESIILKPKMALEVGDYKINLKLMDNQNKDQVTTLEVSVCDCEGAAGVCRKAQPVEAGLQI

[6] = target: T3, Recombinant human P-cadherin Fc (R&D Systems 861-PC-100) (human, UniProt P22223 108-654); assay: ELISA on coated antigen, relative KD
T3 construct: also called recombinant human P-cadherin/Fc fusion protein; hCad/Fc; not shown: Fc part of the bought fusion protein

[7] = target: T1, human P-cadherin on the surface of cells; assay: cell-based or functional assay; remark: listed apart in the source
[8] = target: T3, Recombinant human P-cadherin Fc (R&D …); assay: ELISA; KD on E-cadherin over KD on P-cadherin
[9] = target: T1, human P-cadherin on the surface of cells; assay: epitope competition on A431 cells; competitor: biotinylated 129-1c4 IgG at 3x KD, DELFIA
[10] = target: T4, mouse P-cadherin/Fc fusion protein (mouse, UniProt P10287 100-647, limits assumed); assay: SPR (BIACORE 3000), mCad/Fc immobilised, scFv as analyte, 1:1 fit
T4 construct: also called mCad/Fc; not shown: Fc part of the fusion protein
T4 sequence (looked up): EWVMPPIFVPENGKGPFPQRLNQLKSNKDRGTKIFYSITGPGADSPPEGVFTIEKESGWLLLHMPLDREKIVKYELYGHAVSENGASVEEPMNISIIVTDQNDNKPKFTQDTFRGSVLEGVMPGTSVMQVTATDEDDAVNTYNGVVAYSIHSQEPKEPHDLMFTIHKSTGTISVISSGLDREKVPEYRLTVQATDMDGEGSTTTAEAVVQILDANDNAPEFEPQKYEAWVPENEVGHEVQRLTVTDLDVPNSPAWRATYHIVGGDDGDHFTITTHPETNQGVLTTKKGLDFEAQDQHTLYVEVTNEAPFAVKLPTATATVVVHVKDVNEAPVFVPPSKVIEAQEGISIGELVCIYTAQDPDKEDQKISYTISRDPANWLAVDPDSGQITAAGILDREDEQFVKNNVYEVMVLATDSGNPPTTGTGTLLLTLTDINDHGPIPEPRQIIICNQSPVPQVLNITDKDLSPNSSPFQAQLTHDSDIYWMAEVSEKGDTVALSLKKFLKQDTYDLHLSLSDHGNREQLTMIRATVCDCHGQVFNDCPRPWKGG

[11] = target: T3, Recombinant human P-cadherin Fc (R&D …); assay: SPR (BIACORE 3000), hCad/Fc immobilised, scFv as analyte, 1:1 fit
[12] = target: T1, human P-cadherin on the surface of cells; assay: cell-based or functional assay; remark: listed apart in the source
[13] = target: T2, recombinant human E-cadherin (R&D …); assay: ELISA on coated E-cadherin, IgG titrated from 50 nM down to 0.64 nM

B1: 129-1c4 (antibody, V domains shown)
VH: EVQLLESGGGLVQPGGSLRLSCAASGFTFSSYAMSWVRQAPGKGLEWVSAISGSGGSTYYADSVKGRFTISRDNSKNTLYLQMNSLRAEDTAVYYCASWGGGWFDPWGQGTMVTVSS
VL: QSALTQPASVSGSPGQSITISCTGTSNDVGAYNYVSWYQQHPGKAPKLILSEVNKRPSGVSNRFSGSKSGNTASLSISGLQAEDEADYYCSSFTSGSTFMLFGGGTKLTVL
notes: also called parent IgG
IC50 [1]: 29 nM | SW480 Spheroid Disruption Assay, Fold Increased Disruption vs Control at 5 nM [2]: 4 fold | SW480 Aggregation Assay Mean IC50 [3]: 35 nM | IC50 in the A431 adhesion assay [4]: 1000 to 3000 nM

B2: 194-a02 (antibody, V domains shown)
VH: not shown
VL: B1 VL with S97L, T98P, F99W, M100V
notes: Tested as IgG converted from scFv
Kd [5]: 0.682 nM | Kd [6]: 0.116 nM | SW480 Spheroid Disruption Assay, Fold Increased Disruption vs Control at 5 nM [2]: 10 fold | SW480 Aggregation Assay Mean IC50 [3]: 1.1 nM | A431 Adhesion Assay Mean IC50 (nM) (n = 3) [7]: 0.217 nM | KD(E)/KD(P) [8]: 6

B5: 194-g09 scFv (scFv, V domains shown)
VH: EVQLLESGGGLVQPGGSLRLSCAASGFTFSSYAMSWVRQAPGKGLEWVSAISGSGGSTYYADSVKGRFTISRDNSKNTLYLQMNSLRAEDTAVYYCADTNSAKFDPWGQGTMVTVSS
VL: B1 VL with Q40R, D87E, F93Y, S95M
notes: Single chain Fv in the assay
Kd [10]: 1.8 nM | koff [10]: 0.00081 s⁻¹ | Kd [11]: 2.6 nM | koff [11]: 0.0016 s⁻¹

B6: 194-b09 scFv (scFv, V domains shown)
VH: not shown
VL: B1 VL with S97L, T98P, F99W, M100V, L101V
notes: Single chain Fv in the assay
Kd [10]: 11 nM

B11: 196-e06 (antibody, V domains shown)
VH: EVQLLESGGGLVQPGGSLRLSCAASGFTFSSYAMSWVRQAPGKGLEWVSAISGSGGSTYYADSVKGRFAISRDNSKNTLYLQMNSLRAEDTAVYYCAGSRTVQFDPWGQGTMVTVSS
VL: B1 VL with S91T, F93Y, S95M
notes: Tested as IgG converted from scFv; also called 196-e06 IgG
Kd [5]: 0.187 nM | Kd [6]: 0.062 nM | SW480 Spheroid Disruption Assay, Fold Increased Disruption vs Control at 5 nM [2]: 10 fold | SW480 Aggregation Assay Mean IC50 [3]: 1.9 nM | A431 Adhesion Assay Mean IC50 (nM) (n = 3) [7]: 0.117 nM | KD(E)/KD(P) [8]: 3

B13: 196-g03 scFv (scFv, V domains shown)
VH: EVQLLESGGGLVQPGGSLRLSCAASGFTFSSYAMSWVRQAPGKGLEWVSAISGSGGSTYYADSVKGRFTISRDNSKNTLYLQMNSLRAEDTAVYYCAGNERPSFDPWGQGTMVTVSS
VL: B1 VL with S91T, F93Y, S95M
notes: Single chain Fv in the assay
Kd [10]: 0.76 nM | koff [10]: 0.00047 s⁻¹ | Kd [11]: 1.1 nM | koff [11]: 0.0007 s⁻¹

The remaining lines, values ahead:

Kd [5]: 19.4 nM | Kd [6]: 0.078 nM | SW480 Spheroid Disruption Assay, Fold Increased Disruption vs Control at 5 nM [2]: 13 fold | SW480 Aggregation Assay Mean IC50 [3]: 2.9 nM | A431 Adhesion Assay Mean IC50 (nM) (n = 3) [7]: 0.097 nM | KD(E)/KD(P) [8]: 249
B3: 198-a09 (antibody, V domains shown)
VH: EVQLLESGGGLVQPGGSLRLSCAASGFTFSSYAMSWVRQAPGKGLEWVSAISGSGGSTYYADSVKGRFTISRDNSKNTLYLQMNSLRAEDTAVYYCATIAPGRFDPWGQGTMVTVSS
VL: B1 VL with S13P, S91T, F93Y, S95M
notes: Tested as IgG converted from scFv; also called 198-a09 IgG

IC50 [9]: 2.73 nM
B4: scFv variant of 129-1c4 with VH CDR3 SEQ ID NO: 207 and VL CDR3 SEQ ID NO: 291 (scFv, V domains shown)
VH: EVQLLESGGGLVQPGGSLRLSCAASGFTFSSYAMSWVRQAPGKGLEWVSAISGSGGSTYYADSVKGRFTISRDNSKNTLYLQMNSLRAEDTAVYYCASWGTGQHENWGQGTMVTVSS
VL: B1 VL with M100N
notes: His-tagged purified scFv; also called 207 / 291

Kd [5]: 0.794 nM | Kd [6]: 0.191 nM | KD(E)/KD(P) [8]: 4 | A431 Adhesion Assay Mean IC50 (nM) (n = 2) [12]: 0.77 nM
B7: g-194-e06 (antibody, V domains shown)
VH: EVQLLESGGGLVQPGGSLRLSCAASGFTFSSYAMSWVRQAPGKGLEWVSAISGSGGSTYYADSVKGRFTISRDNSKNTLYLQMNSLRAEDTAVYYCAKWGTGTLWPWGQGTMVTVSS
VL: B1 VL with I49M, L50I, S76T, S97L, T98P, F99W, M100V
notes: Tested as IgG

IC50 [9]: 2.45 nM
B8: scFv variant of 129-1c4 with VH CDR3 SEQ ID NO: 163 and VL CDR3 SEQ ID NO: 43 (scFv, V domains shown)
VH: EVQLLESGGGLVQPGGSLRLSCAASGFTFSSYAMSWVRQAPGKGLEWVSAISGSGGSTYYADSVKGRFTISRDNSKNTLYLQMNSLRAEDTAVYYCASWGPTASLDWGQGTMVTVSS
VL: B1 VL with S91T, F93Y, S95M
notes: His-tagged purified scFv; also called 163 / 43

Kd [5]: 2.16 nM | Kd [6]: 0.788 nM | SW480 Spheroid Disruption Assay, Fold Increased Disruption vs Control at 5 nM [2]: 10 fold | SW480 Aggregation Assay Mean IC50 [3]: 0.9 nM | KD(E)/KD(P) [8]: 3 | A431 Adhesion Assay Mean IC50 (nM) (n = 2) [12]: 0.77 nM
B9: g-194-b09 (antibody, V domains shown)
VH: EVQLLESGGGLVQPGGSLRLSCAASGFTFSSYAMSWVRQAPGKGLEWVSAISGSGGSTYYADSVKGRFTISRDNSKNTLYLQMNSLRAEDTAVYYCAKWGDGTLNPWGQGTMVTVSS
VL: B1 VL with I49M, L50I, S76T, S97L, T98P, F99W, M100V, L101V
notes: Tested as IgG

Kd [6]: 2.6 nM | SW480 Spheroid Disruption Assay, Fold Increased Disruption vs Control at 5 nM [2]: 14 fold | SW480 Aggregation Assay Mean IC50 [3]: 2.6 nM | KD(E)/KD(P) [8]: > 100 | binding result [13]: no binding (tested: 50 nM) | A431 Adhesion Assay Mean IC50 (nM) (n = 2) [12]: 1 nM
B10: g-194-g09 (antibody, V domains shown)
VH: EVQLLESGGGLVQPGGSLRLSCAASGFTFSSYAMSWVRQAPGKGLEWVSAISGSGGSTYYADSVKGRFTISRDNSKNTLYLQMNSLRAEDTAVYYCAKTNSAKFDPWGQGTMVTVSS
VL: B1 VL with I49M, L50I, S76T, F93Y, S95M
notes: Tested as IgG; also called germlined version of 194-g09

Kd [5]: 7.51 nM | Kd [6]: 0.449 nM | SW480 Spheroid Disruption Assay, Fold Increased Disruption vs Control at 5 nM [2]: 13 fold | SW480 Aggregation Assay Mean IC50 [3]: 0.9 nM | KD(E)/KD(P) [8]: 17 | A431 Adhesion Assay Mean IC50 (nM) (n = 2) [12]: 1.05 nM
B12: g-196-g03 (antibody, V domains shown)
VH: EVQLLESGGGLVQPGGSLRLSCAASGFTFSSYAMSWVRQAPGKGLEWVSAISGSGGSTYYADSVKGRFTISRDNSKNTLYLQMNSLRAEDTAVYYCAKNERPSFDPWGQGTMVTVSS
VL: B1 VL with I49M, L50I, S76T, S91T, F93Y, S95M
notes: Tested as IgG; also called germlined version of 196-g03

Source: patent publication US20060240001A1 (AGOURON PHARMACEUTICALS, published 2006)
